Tests used:
LRP1 CR3-5 = biological target: T1, LRP1 CR3-5 (human); experiment: solid-phase assay, coated CR protein, anti-RAP, OD450
T1 construct: range 852-973; Amplified from human cDNA; also called L1 CR3-5
Method: (§1) Percent of maximum binding is the ratio of the OD at the highest concentration tested for each ligand and the highest OD measured for all such ligands at that concentration.
(§2) Solid phase binding assays-Purified, refolded CR protein (1 μg) was bound to Nunc Maxisorp™ 96-well plates in TBS pH 8 supplemented with 5 mM CaCl₂ (TBSC) overnight at 4° C. Wells were washed with TBSC and then blocked with TBSC containing 2% bovine serum albumin (BSA). RAP ligands were then incubated with the immobilized receptor at a range of concentrations for 2 hours in the above blocking buffer supplemented with 0.05% Tween-20 at room temperature. Control wells contained no added ligand. As an additional control, to determine whether the absence of calcium affected binding, 10 mM EGTA was included in the incubation medium for some samples. Wells were washed with TBSTC and bound ligands detected with polyclonal anti-RAP (BP41/42, 1:1,000, BioMarin). Excess primary antibody was removed and wells washed before incubation with the secondary antibody, HRP-conjugated goat anti rabbit IgG (Bio-Rad). After washing, TMB substrate solutions (Bio-Rad) were added to detect HRP. Color development was stopped with 1N HCl. Absorption at 450 nm was measured with a microplate spectrophotometer (Molecular Devices). Data were plotted and Kd values derived by non-linear regression with the assumption of single-site binding (GraphPad Prism).
(§3) Next, binding of RAP d3 and RAPv2A d3 proteins to LRP1 CR3-5 and LRP2 CR89 was assessed. In order to understand the relative contributions of each RAPv2A d3 mutation to differences in affinity, we also prepared a number of RAPv2A d3 revertants and RAP d3 forward mutants, all comprising sequence variants intermediate between RAPv2A d3 and wild-type RAP d3 (FIGS. 7A and B, Table 1). Samples were tested in triplicate and experiments were repeated at least once. Values from different experiments were combined and a single mean and standard deviation obtained for each concentration of ligand tested.

LRP2 CR89 = biological target: T2, LRP2 CR89 (human, UniProt P98164 1025-1102); experiment: as above
T2 construct: domain: CR8 and CR9; also called YVWR; L2 CR89; not shown: N-terminal hexahistidine and S-peptide from pET30(+)a
Method: as §1, §2, §3

T1 sequence (Q07954 852-973): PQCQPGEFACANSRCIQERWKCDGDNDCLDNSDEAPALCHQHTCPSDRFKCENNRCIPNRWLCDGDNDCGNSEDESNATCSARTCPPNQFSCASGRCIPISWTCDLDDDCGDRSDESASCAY
T2 sequence (P98164 1025-1102): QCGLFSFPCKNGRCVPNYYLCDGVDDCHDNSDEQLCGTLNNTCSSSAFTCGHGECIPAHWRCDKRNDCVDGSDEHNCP

% max (percent of maximum binding) (LRP1 CR3-5): 76%
Kd (LRP1 CR3-5): 16 nM
% max (percent of maximum binding) (LRP2 CR89): 5%
B1: wild-type RAP d3 (ligand)
chain: LDRLRRVSHQGYSTEAEFEEPRVIDLWDLEQSANLTDKELEAFREELKHFEAKIEKHNHYQKQLEIAHEKLRHAESVGDGERVSRSREKHALLEGRTKELGYTVKKHLQDLSGRISRAR
notes: expressed in E. coli from pET30(+)a; not shown: vector-encoded N-terminal tags of pET30(+)a (hexahistidine and S-peptide, as stated for the CR constructs)

— patent US20090269346A1 (RAPTOR PHARMACEUTICAL, published 2009)
